The source of these data is the supplement of paper PMC7877785.

This data set in a line: self-splicing fitness, log relative to wild type (ln ratio); higher = more splicing; Tetrahymena group I intron in knt gene, E. coli kanamycin selection, DiMSum; sequences stand for … in CUCUCU…GGAGGGAAAAGUUAUCAGGCAUGCACCUGGUAGCUAGUCUUUAAACCAAUAGAUUGCAUCGGUUUAAAAGGCAAGACCGUCAAAUUGCGGGAAAGGGGUCAACAGCCGUUCAGUACCAAGUCUCAGGGGAAACUUUGAGAUGGCCUUGCAAAGGGUAUGGUAAUAAGCUGACGGACAUGGUCCUAACCACGCAGCCAAGUCCUAAGUCAACAGAUCUUCUGUUGAUAUGGAUGCAGUUCACAGACUAAAUGUCGGUCGGGGAAGAUGUAUUCUUCUCAUAAGAUAUAGUCGGACCUCUCCUUAAUGGGAGCUAGCGGAUGAAGUGAUGCAACACUGGAGCCGCUGGGAACUAAUUUGUAUGCGAAAGUAUAUUGAUUAGUUUUGGAGUACUCGUGGUCG
The method in brief: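 Fitness was computed with DiMSum as the error-weighted combination of replicate fold changes, kanamycin versus none, each normalised to wild type. The library randomised all eight intron nucleotides of the P1ex region, with the intron placed in the knt kanamycin-resistance gene on pET-22b(+) in E. coli BL21(DE3). Six replicate transformations were grown overnight at 37°C or 30°C on LB agar with or without 25 μg/mL kanamycin, plus 100 μg/mL carbenicillin, 50 μM IPTG and 0.2% rhamnose. Pooled colonies were amplicon-sequenced on an Illumina HiSeq 2500.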

± gives the uncertainty stated by the source.

In the case of GACGAGCAAUAUUACGUUAG, the “self-splicing fitness (ln)” value is -3.02 ± 0.17 (30 °C) and -2.56 ± 0.19 (37 °C).

GACUAGCAAUAUUACGACGU: the “self-splicing fitness (ln)” value reads like this: (30 °C) -0.558 ± 0.085; (37 °C) 0.328 ± 0.099.

As for GACUAGCAAUAUUACGACUC, the “self-splicing fitness (ln)” value reads like this: (30 °C) -0.54 ± 0.097; (37 °C) 0.55 ± 0.14.

On to GACUAGCAAUAUUACGAUGG, for which the “self-splicing fitness (ln)” value (30 °C) is -3.49 ± 0.13 and the “self-splicing fitness (ln)” value (37 °C) was -2.24 ± 0.12.

On to GACUAGCAAUAUUACGCACG, for which the “self-splicing fitness (ln)” value (30 °C) is -0.535 ± 0.068 and the “self-splicing fitness (ln)” value (37 °C) was 0.219 ± 0.085.

Turning to GACUAGCAAUAUUACGCAUA, the “self-splicing fitness (ln)” value was -0.568 ± 0.1 (30 °C) and -0.145 ± 0.096 (37 °C).

With GACUAGCAAUAUUACGCCAA, where the note is “37 °C”, the “self-splicing fitness (ln)” value was -1.6 ± 0.29.

Take GACUAGCAAUAUUACGCCUC: the “self-splicing fitness (ln)” value (30 °C) was -0.374 ± 0.14 and the “self-splicing fitness (ln)” value (37 °C) is -1.76 ± 0.16.

With GACUAGCAAUAUUACGCUAG, the “self-splicing fitness (ln)” value (30 °C) is -2.44 ± 0.31 and the “self-splicing fitness (ln)” value (37 °C) is -1.16 ± 0.26.

Turning to GACUAGCAAUAUUACGCUAU, the “self-splicing fitness (ln)” value (37 °C) was -3.22 ± 0.43.

Consider GACUAGCAAUAUUACGGAAC, for which the “self-splicing fitness (ln)” value (30 °C) is -1.61 ± 0.12 and the “self-splicing fitness (ln)” value (37 °C) was -1.15 ± 0.17.

In the case of GACUAGCAAUAUUACGGAAU, the “self-splicing fitness (ln)” value (30 °C) is -2.12 ± 0.12 and the “self-splicing fitness (ln)” value (37 °C) is -1.91 ± 0.14.

For the sequence GACUAGCAAUAUUACGGACC, the “self-splicing fitness (ln)” value is -1.77 ± 0.38 (30 °C) and -0.714 ± 0.39 (37 °C).

With GACUAGCAAUAUUACGGCUG, the “self-splicing fitness (ln)” value was -1.04 ± 0.079 (30 °C) and -0.193 ± 0.087 (37 °C).

GACUAGCAAUAUUACGGGAU: the “self-splicing fitness (ln)” value is -1.59 ± 0.14 (30 °C) and -0.788 ± 0.14 (37 °C).

Regarding GACUAGCAAUAUUACGGGCC, the “self-splicing fitness (ln)” value (37 °C) was -2.46 ± 0.41.

Take GACUAGCAAUAUUACGUAUA: the “self-splicing fitness (ln)” value (30 °C) was -1.01 ± 0.11 and the “self-splicing fitness (ln)” value (37 °C) was -0.555 ± 0.13.

Turning to GACUAGCAAUAUUACGUCAA, the “self-splicing fitness (ln)” value reads like this: (30 °C) -2.55 ± 0.16; (37 °C) -2 ± 0.12.

Consider GACUAGCAAUAUUACGUCCU, for which the “self-splicing fitness (ln)” value is, setting by setting: (30 °C) -1.15 ± 0.2; (37 °C) 0.446 ± 0.17.

On to GACUAGCAAUAUUACGUGAU, for which the “self-splicing fitness (ln)” value was -1.83 ± 0.078 (30 °C) and -0.383 ± 0.087 (37 °C).

For GACUAGCAAUAUUACGUGGU, the “self-splicing fitness (ln)” value reads like this: (30 °C) -3.39 ± 0.13; (37 °C) -2.73 ± 0.15.

Take GACUAGCAAUAUUACGUUCU: the “self-splicing fitness (ln)” value (30 °C) was -3.33 ± 0.26 and the “self-splicing fitness (ln)” value (37 °C) was -0.968 ± 0.14.

GAGAAGCAAUAUUACGAAGC: the “self-splicing fitness (ln)” value is, setting by setting: (30 °C) -3.21 ± 0.28; (37 °C) -1.65 ± 0.29.

Turning to GAGAAGCAAUAUUACGACAG, the “self-splicing fitness (ln)” value is -2.31 ± 0.19 (30 °C) and -3.09 ± 0.4 (37 °C).

Turning to GAGAAGCAAUAUUACGACCA, the “self-splicing fitness (ln)” value was -1.12 ± 0.18 (30 °C) and 0.744 ± 0.3 (37 °C).

As for GAGAAGCAAUAUUACGACUG, the “self-splicing fitness (ln)” value runs as follows: (30 °C) -0.535 ± 0.062; (37 °C) -0.0404 ± 0.073.

As for GAGAAGCAAUAUUACGAGAU, the “self-splicing fitness (ln)” value by setting is: (30 °C) -4.47 ± 0.42; (37 °C) -2.1 ± 0.22.

On to GAGAAGCAAUAUUACGAGUA, for which the “self-splicing fitness (ln)” value runs as follows: (30 °C) -2.04 ± 0.2; (37 °C) -1.73 ± 0.12.

In the case of GAGAAGCAAUAUUACGAUAA, the “self-splicing fitness (ln)” value is, setting by setting: (30 °C) -2.02 ± 0.14; (37 °C) -0.42 ± 0.15.

Turning to GAGAAGCAAUAUUACGCAGC, the “self-splicing fitness (ln)” value is -3.2 ± 0.38 (30 °C) and -1.48 ± 0.26 (37 °C).

On to GAGAAGCAAUAUUACGCAUU, for which the “self-splicing fitness (ln)” value by setting is: (30 °C) -2.53 ± 0.12; (37 °C) -2.08 ± 0.17.

For the sequence GAGAAGCAAUAUUACGCCCU, the “self-splicing fitness (ln)” value is -0.493 ± 0.16 (30 °C) and 0.146 ± 0.18 (37 °C).

With GAGAAGCAAUAUUACGCCGG, the “self-splicing fitness (ln)” value (30 °C) was -2.05 ± 0.44 and the “self-splicing fitness (ln)” value (37 °C) was 0.0344 ± 0.4.

In the case of GAGAAGCAAUAUUACGCGGG, the “self-splicing fitness (ln)” value (30 °C) was -2.86 ± 0.14 and the “self-splicing fitness (ln)” value (37 °C) was -1.88 ± 0.14.

Take GAGAAGCAAUAUUACGCUGC: the “self-splicing fitness (ln)” value was -2.78 ± 0.46 (30 °C) and -2.26 ± 0.49 (37 °C).

For the sequence GAGAAGCAAUAUUACGGAAU, the “self-splicing fitness (ln)” value (30 °C) is -3.69 ± 0.25 and the “self-splicing fitness (ln)” value (37 °C) was -1.55 ± 0.2.

For the sequence GAGAAGCAAUAUUACGGAGG, for the setting “37 °C”, the “self-splicing fitness (ln)” value was -2.47 ± 0.21.

With GAGAAGCAAUAUUACGGCGG, the “self-splicing fitness (ln)” value reads like this: (30 °C) -1.9 ± 0.12; (37 °C) -1.25 ± 0.15.

Turning to GAGAAGCAAUAUUACGGUAA, the “self-splicing fitness (ln)” value is, setting by setting: (30 °C) -1.64 ± 0.2; (37 °C) -1.57 ± 0.18.
